Here are results for six molecules from PMC10015821 (Matrix biology : journal of the International Society for …, 2022).

As usually defined, the Kd is the concentration at which binding is half-saturated. A higher Kd goes with a looser complex. A word on the koff: it is the rate constant with which the complex falls apart. Low values mean slow dissociation, high ones fast dissociation. By kon is commonly meant the rate constant with which the complex forms. A lower kon goes with slow association.

What all share (assay): SPR
For assay [1], the target named is mouse HMCN1 fragment G2F-EGF1–5 (Strep-tagged) (mouse) (UniProt D3YXG0).
The target of assay [2] is mouse HMCN1 fragment G2F (mouse) (UniProt D3YXG0).
Assay [3] has as its target mouse HMCN1 fragment G2F-EGF1–2 (mouse) (UniProt D3YXG0).
Assay [4] deals with mouse HMCN1 fragment G2F-EGF1–3 (mouse) (UniProt D3YXG0).
Assay [5] concerns the target mouse HMCN1 fragment G2F-EGF1–4 (mouse) (UniProt D3YXG0).
The target of assay [6] is mouse HMCN1 fragment TSR6-G2F-EGF1–2 (mouse) (UniProt D3YXG0).
The target in assay [7] is laminin-511 (UniProt O15230 36-3695; P07942 22-1786; P11047 34-1609).
Assay [8] addresses laminin-γ1 short arm (mouse) (UniProt P02468).
Assay [9] addresses mouse HMCN1 fragment EGF1–5 (mouse) (UniProt D3YXG0).
Assay [10] has as its target mouse HMCN1 fragment G2F-EGF1–5 (Strep-tagged) (mouse, UniProt D3YXG0 22-5634).

Chain of laminin-γ1 short arm (mouse) (P02468 34-1607): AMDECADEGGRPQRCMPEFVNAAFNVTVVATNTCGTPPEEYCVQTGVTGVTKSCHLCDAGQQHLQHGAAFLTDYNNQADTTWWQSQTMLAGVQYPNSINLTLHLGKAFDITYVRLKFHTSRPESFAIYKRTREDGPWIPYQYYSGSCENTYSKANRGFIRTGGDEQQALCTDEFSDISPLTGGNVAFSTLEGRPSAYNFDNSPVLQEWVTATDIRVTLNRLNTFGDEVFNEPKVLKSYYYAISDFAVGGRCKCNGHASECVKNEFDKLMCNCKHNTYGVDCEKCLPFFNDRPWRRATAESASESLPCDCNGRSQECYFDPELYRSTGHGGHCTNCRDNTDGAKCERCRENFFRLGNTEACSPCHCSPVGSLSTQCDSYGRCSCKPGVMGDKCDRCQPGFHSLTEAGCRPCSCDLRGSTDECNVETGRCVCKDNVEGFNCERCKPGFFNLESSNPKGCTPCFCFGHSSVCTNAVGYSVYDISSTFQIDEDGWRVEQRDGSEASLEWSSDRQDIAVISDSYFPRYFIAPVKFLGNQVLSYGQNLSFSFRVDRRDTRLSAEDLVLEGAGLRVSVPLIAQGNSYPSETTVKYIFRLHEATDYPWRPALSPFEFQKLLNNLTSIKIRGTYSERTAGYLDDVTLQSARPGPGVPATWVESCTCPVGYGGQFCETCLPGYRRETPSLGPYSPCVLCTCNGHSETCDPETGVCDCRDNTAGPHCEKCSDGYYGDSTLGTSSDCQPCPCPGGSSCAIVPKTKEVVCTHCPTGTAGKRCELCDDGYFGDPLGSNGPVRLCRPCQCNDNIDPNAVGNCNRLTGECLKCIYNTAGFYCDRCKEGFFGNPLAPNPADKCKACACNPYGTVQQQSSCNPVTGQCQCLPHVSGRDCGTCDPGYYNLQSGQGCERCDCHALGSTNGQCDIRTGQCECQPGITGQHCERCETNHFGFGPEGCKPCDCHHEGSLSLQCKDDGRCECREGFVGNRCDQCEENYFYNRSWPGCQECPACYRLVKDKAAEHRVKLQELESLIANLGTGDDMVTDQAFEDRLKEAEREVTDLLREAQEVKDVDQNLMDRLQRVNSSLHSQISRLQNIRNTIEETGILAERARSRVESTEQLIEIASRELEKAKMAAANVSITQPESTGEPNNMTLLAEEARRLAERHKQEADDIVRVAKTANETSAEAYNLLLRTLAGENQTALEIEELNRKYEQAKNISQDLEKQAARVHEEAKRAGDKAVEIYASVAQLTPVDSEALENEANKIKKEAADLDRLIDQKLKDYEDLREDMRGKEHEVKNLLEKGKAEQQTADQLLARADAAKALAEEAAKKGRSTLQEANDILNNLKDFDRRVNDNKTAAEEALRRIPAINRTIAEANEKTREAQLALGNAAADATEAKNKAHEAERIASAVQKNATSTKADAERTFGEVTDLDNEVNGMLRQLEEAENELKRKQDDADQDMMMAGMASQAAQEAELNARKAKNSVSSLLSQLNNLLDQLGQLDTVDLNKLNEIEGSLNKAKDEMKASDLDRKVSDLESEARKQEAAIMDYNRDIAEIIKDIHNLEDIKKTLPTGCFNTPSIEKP

“mouse NID1 TY-G3 (TG3) domain (from UniProt P10493 29-1245) (domain or fragment)” displayed a Kd in [1] of 585 nM.
As to “mouse NID2 TY-G3 (TG3) domain, Strep-tagged (from UniProt O88322 31-1403) (domain or fragment)”, the Kd in assay [2] was above 3000 nM; in [3] it was 185 nM; in [4], 170 nM; in [5] it was 180 nM; in assay [1], 30 nM; in assay [6] it was 176 nM.

B1: mouse nidogen-2 (NID2), full-length, Strep-tagged (natural protein, UniProt O88322 31-1403, looked up)
chain: LRPDELFPYGESWGDQLLPEGDDESSAAVKLAIPLRFYDAQFSSLYVGTNGIISTQDFPRETQYVDDDFPTDFPAIAPFLADIDTSHSRGRILYREDTSGAVLSLAARYVRTGFPLSGSSFTPTHAFLATWEHVGAYEEVSRGAAPSGELNTFQAVLASDESDTYALFLYPANGLQFFGTRPKESYNVQLQLPARVGFCRGEADDLKREALYFSLTNTEQSVKNLYQLSNLGIPGVWAFHIGSRFALDNVRPATVGGDPSTARSSALEHPFSHAAALESYTEDSFHYYDENEEDVEYPPVEPGEAPEGHSRIDVSFNSKADPGLVDVGTSSPGSDRASPWPYPAPGNWPSYRETESASLDPQTKQGRPVGEGEVLDFRDPAELLDQMGTRAPAPPEADAALLTPVNEDLGGRNTQSYPEAGPVPSEPDVPVPPLEGEVLPHYPESGHVPPLRGGKYVIGLEDHVGSNDQVFTYNGANLETCEHSHGRCSQHAFCTDYTTGFCCHCQSRFYGNGKHCLPEGAPHRVNGKVSGRLRVGHIPVHFTDVDLHAYIVGNDGRAYTAISHVPQPAAQALLPVLPIGGLFGWLFALEKPGSENGFSLTGATFVHDVEVTFHPGEERVRITQTAEGLDPENYLSIKTNIEGQVPFIPANFTAHITPYKEFYHYRDSVVTSSSSRSFSLTSGSINQTWSYHIDQNITYQACRHAPRHLAIPATQQLTVDRAFALYSEDEGVLRFAVTNQIGPVEVDSAPVGVNPCYDGSHTCDTTARCHPGTGVDYTCECTPGFQGDGRSCVDVNECATGFHRCGPNSVCVNLVGSYRCECRSGYEFADDQHTCILIAPPPNPCLDGSHTCAPEGQARCIHHGGSSFSCACLPGFIGTGHQCSDVDECAENRCHEAAICYNTPGSFSCRCQPGYRGDGFHCTSDTVPEDSISGLKPCEYQQRYAQTQHAYPGSRIHIPQCDDQGNFVPLQCHGSTGFCWCVDRNGHEVPGTQTPPGSTPPHCGPPPEPTQRPRTVCERWRESLLEHYGGTPRDDQYVPQCDDLGHFIPLQCHGKSDFCWCVDKDGRELQGTRSQPGTRPACIPTVAPPVVRPTPRPDVTPPSVGTFLLYAQGQQIGHLPLNGSRLQKDAARTLLSLHGSIVVGIDYDCRERMVYWTDVAGRTISRASLEAGAEPETIITSGLISPEGLAIDHFRRTMYWTDSGLDKIERAELDGSERKVLFHTDLVNPRAITVDPIRGNLYWTDWNREAPKIETSSLDGENRRILINKDIGLPNGLTFDPFSKLLCWADAGTKKLECTLPDGTGRRVIQNHLNYPFSIVSYADHFYHTDWRRDGVISVNKDSGQFTDEFLPEQRSHLYGITAVYPYCPTGRK
Regarding B1, the Kd is 5 nM in assay [7]; 6 nM in assay [8]; 500 nM in [9]; above 3000 nM in assay [2]; 200 nM in assay [3]; 210 nM in assay [4]. The Kd in assay [5] was 193 nM; in assay [1], 20 nM; in [6], 160 nM. Besides, the values for the koff in [7], in assay [8] and in assay [1] were 0.00081 s⁻¹, 0.00073 s⁻¹ and 0.00837 s⁻¹, respectively. For the same molecule, in assay [8], the kon is 120000 M⁻¹ s⁻¹.

B2: hybrid fragment: two TY domains of NID2 with the G3 domain of NID1 (N2T-N1G3) (domain or fragment)
chain: LKPCEYQQRYAQTQHAYPGSRIHIPQCDDQGNFVPLQCHGSTGFCWCVDRNGHEVPGTQTPPGSTPPHCGPPPEPTQRPRTVCERWRESLLEHYGGTPRDDQYVPQCDDLGHFIPLQCHGKSDFCWCVDKDGRELQGTRSQPGTRPACLSTVAPPIHQGPVVPTAVIPLPPGTHLLFAQTGKIERLPLERNTMKKTEAKAFLHIPAKVIIGLAFDCVDKVVYWTDISEPSIGRASLHGGEPTTIIRQDLGSPEGIALDHLGRTIFWTDSQLDRIEVAKMDGTQRRVLFDTGLVNPRGIVTDPVRGNLYWTDWNRDNPKIETSHMDGTNRRILAQDNLGLPNGLTFDAFSSQLCWVDAGTHRAECLNPAQPGRRKVLEGLQYPFAVTSYGKNLYYTDWKTNSVIAMDLAISKEMDTFHPHKQTRLYGITIALSQCPQGHNYCSVNNGGCTHLCLPTPGSRTCRCPDNTLGVDCIERK
As to B2, in assay [10], binding was put at a Kd of 170 nM.

B3: mouse nidogen-1 (NID1), full-length (natural protein, UniProt P10493 29-1245, looked up)
chain: LNRQELFPFGPGQGDLELEAGDDVVSPSLELIGELSFYDRTDITSVYVTTNGIIAMSEPPATEYHPGTFPPSFGSVAPFLADLDTTDGLGNVYYREDLSPFIIQMAAEYVQRGFPEVSFQPTSVVVVTWESVAPYGGPSSSPAEEGKRNTFQAVLASSNSSSYAIFLYPEDGLQFFTTFSKKDESQVPAVVGFSKGLVGFLWKSNGAYNIFANDRESIENLAKSSNAGHQGVWVFEIGSPATAKGVVSADVNLDLDDDGADYEDEDYDLVTSHLGLEDVATPSPSHSPRRGYPDPHNVPRILSPGYEATERPRGVPTERTRSFQLPAERFPQHHPQVIDVDEVEETGVVFSYNTGSQQTCANNRHQCSVHAECRDYATGFCCRCVANYTGNGRQCVAEGSPQRVNGKVKGRIFVGSSQVPVVFENTDLHSYVVMNHGRSYTAISTIPETVGYSLLPLAPIGGIIGWMFAVEQDGFKNGFSITGGEFTRQAEVTFLGHPGKLVLKQQFSGIDEHGHLTISTELEGRVPQIPYGASVHIEPYTELYHYSSSVITSSSTREYTVMEPDQDGAAPSHTHIYQWRQTITFQECAHDDARPALPSTQQLSVDSVFVLYNKEERILRYALSNSIGPVRDGSPDALQNPCYIGTHGCDSNAACRPGPGTQFTCECSIGFRGDGQTCYDIDECSEQPSRCGNHAVCNNLPGTFRCECVEGYHFSDRGTCVAAEDQRPINYCETGLHNCDIPQRAQCIYMGGSSYTCSCLPGFSGDGRACRDVDECQHSRCHPDAFCYNTPGSFTCQCKPGYQGDGFRCMPGEVSKTRCQLEREHILGAAGGADAQRPTLQGMFVPQCDEYGHYVPTQCHHSTGYCWCVDRDGRELEGSRTPPGMRPPCLSTVAPPIHQGPVVPTAVIPLPPGTHLLFAQTGKIERLPLERNTMKKTEAKAFLHIPAKVIIGLAFDCVDKVVYWTDISEPSIGRASLHGGEPTTIIRQDLGSPEGIALDHLGRTIFWTDSQLDRIEVAKMDGTQRRVLFDTGLVNPRGIVTDPVRGNLYWTDWNRDNPKIETSHMDGTNRRILAQDNLGLPNGLTFDAFSSQLCWVDAGTHRAECLNPAQPGRRKVLEGLQYPFAVTSYGKNLYYTDWKTNSVIAMDLAISKEMDTFHPHKQTRLYGITIALSQCPQGHNYCSVNNGGCTHLCLPTPGSRTCRCPDNTLGVDCIERK
Take B3: in assay [7], binding was characterised by a dissociation constant (Kd) of 2.4 nM and the koff was 0.0021 s⁻¹. In addition, the Kd in assay [1] was 560 nM.

B4: hybrid fragment: single TY domain of NID1 with the G3 domain of Nid2 (N1T-N2G3) (domain or fragment)
chain: KTRCQLEREHILGAAGGADAQRPTLQGMFVPQCDEYGHYVPTQCHHSTGYCWCVDRDGRELEGSRTPPGMRPPCIPTVAPPVVRPTPRPDVTPPSVGTFLLYAQGQQIGHLPLNGSRLQKDAARTLLSLHGSIVVGIDYDCRERMVYWTDVAGRTISRASLEAGAEPETIITSGLISPEGLAIDHFRRTMYWTDSGLDKIERAELDGSERKVLFHTDLVNPRAITVDPIRGNLYWTDWNREAPKIETSSLDGENRRILINKDIGLPNGLTFDPFSKLLCWADAGTKKLECTLPDGTGRRVIQNHLNYPFSIVSYADHFYHTDWRRDGVISVNKDSGQFTDEFLPEQRSHLYGITAVYPYCPTGRK
The molecule B4 returned a Kd in [10] of 110 nM.
